Here are results for four molecules from patent US20220041691A1, “METHODS FOR DIAGNOSING OR TREATING POST-TRAUMATIC STRESS DISORDER, AND COMPOSITIONS THEREFOR” (Centre for Addiction and Mental Health, priority 2018, published 2022).

Substitutions are numbered along the chain they refer to. Names may count otherwise. Read-outs that look alike come from different tables or passages of the source. Ends that are not written are not given here.

In assay [1] the target is T1, GR (Mus musculus, UniProt P06537).
T1 construct: from tissue; host or cells: mouse brain
T1 sequence (P06537 1-792): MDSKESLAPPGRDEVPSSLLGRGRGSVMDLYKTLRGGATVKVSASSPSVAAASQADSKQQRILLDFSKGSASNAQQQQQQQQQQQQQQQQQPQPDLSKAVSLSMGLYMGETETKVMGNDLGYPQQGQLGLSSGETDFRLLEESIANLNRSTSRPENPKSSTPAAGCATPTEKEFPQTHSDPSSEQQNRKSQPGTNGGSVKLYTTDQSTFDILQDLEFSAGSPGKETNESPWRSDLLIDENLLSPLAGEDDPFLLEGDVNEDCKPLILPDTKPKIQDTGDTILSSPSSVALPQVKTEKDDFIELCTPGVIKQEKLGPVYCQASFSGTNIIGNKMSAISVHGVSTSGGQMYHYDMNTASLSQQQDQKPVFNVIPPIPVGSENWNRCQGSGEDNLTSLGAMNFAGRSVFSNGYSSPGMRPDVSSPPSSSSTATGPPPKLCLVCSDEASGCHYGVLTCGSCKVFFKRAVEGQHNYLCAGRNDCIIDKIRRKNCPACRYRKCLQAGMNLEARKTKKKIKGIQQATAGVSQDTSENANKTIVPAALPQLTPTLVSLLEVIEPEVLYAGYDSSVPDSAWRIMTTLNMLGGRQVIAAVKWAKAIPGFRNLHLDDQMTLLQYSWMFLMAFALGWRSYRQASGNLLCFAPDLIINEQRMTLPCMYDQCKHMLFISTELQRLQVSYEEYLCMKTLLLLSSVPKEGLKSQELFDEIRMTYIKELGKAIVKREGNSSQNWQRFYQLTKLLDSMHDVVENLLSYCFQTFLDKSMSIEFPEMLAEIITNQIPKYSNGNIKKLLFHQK
In words: GST pull-down of GR by GST-FKBP51 fragments in mouse brain tissue. In kind it is binding. From the text: The present inventors identified that if increased GR-FKBP51 complex levels are part of the pathophysiology of PTSD, then disrupting the complex may rescue behaviors related to PTSD. To develop an agent (in this example, a peptide-based agent) capable of blocking the GR-FKBP51 interaction, experiments were first performed to identify the regions of the GR that are important to bind FKBP51 (and vice versa). Initially, GST-fusion proteins were used encoding the amino-terminus (NT) of GR (GRNT) and the carboxyl-terminus (CT) of GR (GRCT) for affinity purification. […] Extending this strategy, GRNT fragments were examined (see FIG. 8, where the 6 tested GRNT fragments, NT-1, NT-2, NT-3, NT-4, NT-5, and NT-6 are shown). […] Similarly, it was determined that the TPR (tetratricopeptide repeat) domains of FKBP51 bind GR (FIG. 2D). In these studies, GST-fusion proteins of 3 different portions of the FKBP51 protein were prepared (FK1, FK2, and TPR, see FIG. 9) and tested. The TPR fragment was identified as containing the relevant interaction region.
GST-fusion proteins encoding truncated GR fragments were amplified by PCR from full-length human cDNA clones. All constructs were sequenced to confirm the absence of PCR-generated errors. […]

Assay [2] concerns the target T2, FKBP51-TPR (Homo sapiens, UniProt Q13451).
T2 construct: made in house; host or cells: bacteria
T2 sequence (Q13451 258-457): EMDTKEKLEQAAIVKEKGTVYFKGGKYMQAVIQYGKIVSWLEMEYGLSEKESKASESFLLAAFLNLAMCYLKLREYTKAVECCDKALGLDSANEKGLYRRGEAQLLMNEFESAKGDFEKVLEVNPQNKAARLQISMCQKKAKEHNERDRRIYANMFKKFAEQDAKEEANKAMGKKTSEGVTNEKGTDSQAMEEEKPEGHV
As to the kind of experiment: Surface plasmon resonance, binding of FKBP51 TPR domain to GR and its phosphorylation mutants. As to conditions: Flag-tagged GR immobilized on sensor chip, 25° C. The procedure:
The binding of FKBP51 TPR domain to GR and its phosphorylation mutants was determined by surface plasmon resonance using a Reichert SR7500DC instrument. Experiments were conducted at 25° C. with 2000 RU HEK293 expressed FLAG-tagged GR bound onto a FLAG antibody-coated Dextran 50,000 Da chip. Running buffer (PBS, pH 7.4 with 0.005% Tween 20) was used with a flow rate of 25 μl/min. With association time of 300s and dissociation of 240s, binding signals were determined by injecting various concentrations of the GST-FKBP51_TPR.

Assay [3] concerns the target T3, GFP-FKBP51 (Homo sapiens, UniProt Q13451).
T3 sequence (Q13451 1-457): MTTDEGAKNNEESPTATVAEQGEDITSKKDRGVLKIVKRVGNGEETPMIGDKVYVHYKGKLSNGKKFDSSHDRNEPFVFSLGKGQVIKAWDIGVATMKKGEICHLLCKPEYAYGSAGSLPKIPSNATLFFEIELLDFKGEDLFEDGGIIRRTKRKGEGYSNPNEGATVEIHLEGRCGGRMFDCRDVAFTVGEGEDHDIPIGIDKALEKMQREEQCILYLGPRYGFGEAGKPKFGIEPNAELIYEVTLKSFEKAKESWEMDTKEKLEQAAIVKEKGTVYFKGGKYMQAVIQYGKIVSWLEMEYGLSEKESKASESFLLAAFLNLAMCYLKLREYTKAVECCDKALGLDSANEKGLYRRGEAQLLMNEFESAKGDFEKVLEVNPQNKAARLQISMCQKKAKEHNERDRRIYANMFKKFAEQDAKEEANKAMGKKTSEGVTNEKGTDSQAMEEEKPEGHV
As to the kind of experiment: Co-immunoprecipitation of Flag-GR (WT, S211A, S211E) with GFP-FKBP51 in transfected HEK293T cells. As to conditions: HEK293T cells transfected with GR variant and GFP-FKBP51, n=3. In kind it is cell-based. An excerpt: Thus, it was investigated whether the increased GR-FKBP51 seen in fear-conditioned mice and PTSD patients was associated with altered GR S211 phosphorylation. […] Similar results were also seen in samples from PTSD patients (FIG. 5C n=12, p<0.05, t-test). To probe further into how S211 phosphorylation and GR-FKBP51 are related, two GR mutants were generated (see SEQ ID NOs: 10 (S211A) and 11 (S211E) of FIG. 10). S211A is a non-phosphorylated GR mutant and S211E is phosphomimetic GR mutant.
HEK293T cells were maintained as a monolayer culture at 37° C. in Dulbecco's Modified Eagle Medium (DMEM) (Invitrogen) supplemented with 10% fetal bovine serum (Gibco). Cells were grown to 90% confluence before being transiently transfected with DNA constructs by X-treme GENE 9 transfection reagent (Roche), following the manufacturer's instructions. About 24-48 hrs after transfection, cells were used for experiments.
Co-immunoprecipitation and Western blot analyses were performed as previously described.^24, 25, 26 For co-immunoprecipitation, 500˜1000 μg solubilized protein was extracted from whole mouse brain and incubated with primary antibody or control IgG (2˜4 μg) for 4 hrs at 4° C., followed by the addition of 25 μl protein A/G plus agarose (Santa Cruz Biotechnology) for 12 hrs. Pellets were washed, boiled for 5 min in SDS sample buffer and subjected to SDS-PAGE. 50˜100 μg of total protein extract was used as control in each experiment. After transfer of proteins into nitrocellulose, membranes were Western blotted with the primary antibodies. The intensity of protein level was quantified by densitometry (software: ImageLab, Bio-Rad).
Mutants of Flag-GR and GST-GR-NT were created with the QuickChange site-directed mutagenesis kit (Stratagene, La Jolla, Calif.). All mutants were confirmed by DNA sequencing.

Setting [4] is: read-out: KD for binding FKBP51 (SPR).

Take “GST-TPR3: GST-fusion protein of FKBP51 TPR fragment 3 (GEAQLLMNEFESAKGDFEKVLEVNPQNKAARLQISMCQKKAKEHNERDRR; also: GST fusion protein)”: in assay [1], the “pull-down of GR by GST-FKBP51 fragment, Western blot” value is on record as “can “pull-down””.

B1: GST-TPR: GST-fusion protein of FKBP51 tetratricopeptide repeat (TPR) domain (protein)
chain: T2 sequence (Q13451 258-457)
modifications: left off: a dimerising Fc or GST
notes: GST-fusion protein of FKBP51 tetratricopeptide repeat (TPR) domain
With B1, the “pull-down of GR by GST-FKBP51 fragment, Western blot” value in assay [1] is given as “can “pull-down””.

B2: S211A GR: non-phosphorylated GR mutant, Flag-tagged (protein)
chain: MDSKESLTPGREENPSSVLAQERGDVMDFYKTLRGGATVKVSASSPSLAVASQSDSKQRRLLVDFPKGSVSNAQQPDLSKAVSLSMGLYMGETETKVMGNDLGFPQQGQISLSSGETDLKLLEESIANLNRSTSVPENPKSSASTAVSAAPTEKEFPKTHSDVSSEQQHLKGQTGTNGGNVKLYTTDQSTFDILQDLEFSSGSPGKETNEAPWRSDLLIDENCLLSPLAGEDDSFLLEGNSNEDCKPLILPDTKPKIKDNGDLVLSSPSNVTLPQVKTEKEDFIELCTPGVIKQEKLGTVYCQASFPGANIIGNKMSAISVHGVSTSGGQMYHYDMNTASLSQQQDQKPIFNVIPPIPVGSENWNRCQGSGDDNLTSLGTLNFPGRTVFSNGYSSPSMRPDVSSPPSSSSTATTGPPPKLCLVCSDEASGCHYGVLTCGSCKVFFKRAVEGQHNYLCAGRNDCIIDKIRRKNCPACRYRKCLQAGMNLEARKTKKKIKGIQQATTGVSQETSENPGNKTIVPATLPQLTPTLVSLLEVIEPEVLYAGYDSSVPDSTWRIMTTLNMLGGRQVIAAVKWAKAIPGFRNLHLDDQMTLLQYSWMFLMAFALGWRSYRQSSANLLCFAPDLIINEQRMTLPCMYDQCKHMLYVSSELHRLQVSYEEYLCMKTLLLLSSVPKDGLKSQELFDEIRMTYIKELGKAIVKREGNSSQNWQRFYQLTKLLDSMHEVVENLLNYCFQTFLDKTMSIEFPEMLAEIITNQIPKYSNGNIKKLLFHQK
modifications: Flag tag; Amino Acid Sequence of S211A GR Mutant (non-phosphorylated GR mutant)
notes: non-phosphorylated GR mutant, Flag-tagged
Broadly, the Kd is a measure of binding affinity in units of concentration. With B2, the Kd in assay [2] (setting [4]) came to 0.412 µM. Besides, the figures for the “GR-FKBP51 complex level (Flag-GR co-immunoprecipitated with GFP-FKBP51) compared to wild-type GR” value in assay [3] and in assay [3] (listed as S211A-GR) were “significantly higher” and “higher levels of the GR-FKBP51 complex”, respectively.

B3: S211E GR: phosphomimetic GR mutant, Flag-tagged (protein)
chain: B2 chain with A211E
modifications: Flag tag; Amino Acid Sequence of S211E GR Mutant (phosphomimetic GR mutant)
notes: phosphomimetic GR mutant, Flag-tagged
In the case of B3, the Kd was found to be 3.9 µM in assay [2] (figure legend values, read-out: KD for binding FKBP51-TPR (SPR)) and 3.9 ± 0.01 µM in assay [2] (setting [4]). The “GR-FKBP51 complex level (Flag-GR co-immunoprecipitated with GFP-FKBP51) compared to wild-type GR” value in assay [3] is “no significant difference”.
